Measurements as given in article PMC4996947, “Rapid α-oligomer formation mediated by the Aβ C terminus initiates an amyloid assembly pathway” (Nature Communications, 2016).
Where “and” joins values, the source holds several entries; their conditions need not be identical. Identical values can stand only once. Ends that are not written are not given here.

Key:
[1] = cited from earlier work
Procedure: Table 1 Amyloid nucleation and stabilization data. | column: Cr (μM) || We also addressed whether the Aβ appendages of these hybrid peptides provide any additional stability to the Q23 amyloid cores, in analogy to the stabilizing effect of HTT^NT on HTT exon1 amyloid. Stabilities were assessed by determining the concentration of monomer present when the amyloid assembly reaction reaches equilibrium (Supplementary Fig. 5)[41]. […] The results (Table 1) indicate some interesting trends.

[2] = Segmental HX-MS of the C-terminal pepsin fragment (35–42/35–40) of mature fibrils; format: physicochemical; conditions: mature amyloid fibrils, pepsin cleavage between Leu34 and Met35
Excerpt: According to our hypothesis and designs of the peptide models, we expected the Aβ segments of the hybrid peptides to not be involved in amyloid core formation. […] Since the typical α-helix band in FTIR overlaps the characteristic polyQ amyloid band at ∼1,657 cm^−1 (ref. [23]), it is not expected that we might observe any α-helical structure in these fibrils that might be analogous to the HTT^NT α-helix in HTT exon1 fibrils. To address whether a portion of the Aβ segment might be involved in stable β-structure in the fibrils, we used hydrogen–deuterium exchange evaluated by mass spectrometry (HX-MS). […] The absence of a large amount of β-structure within the Aβ segment of the polyQ-Aβ hybrid fibrils is consistent with the total β-structure content of about 50% seen in the CD spectra of the final amyloid suspensions (Figs 2j, 3h and 4j) of peptides containing about 50% Gln residues. […]
All HX-MS data were analysed using an Agilent 1100 series single quadruple ESI mass spectrometer. Aggregates were washed and incubated in D2O and the exchange reactions analysed after an appropriate exchange time. Global HX was analysed by simultaneous dissolution and MS analysis of the exchange reaction using a T-tube front end to the MS[62]; data were not corrected for back-exchange. […]

Aβ42 aggregates = molecular target: T1, Aβ42 aggregates (Homo sapiens, UniProt P05067); assay: Global hydrogen–deuterium exchange mass spectrometry (HX-MS) of aggregates; format: physicochemical; conditions: for Global HX incorporation: not corrected for back-exchange
T1 construct: purchased Keck Center (Keck Biotechnology Center at Yale University); obtained pre-purified
Procedure: All HX-MS data were analysed using an Agilent 1100 series single quadruple ESI mass spectrometer. Aggregates were washed and incubated in D2O and the exchange reactions analysed after an appropriate exchange time. Global HX was analysed by simultaneous dissolution and MS analysis of the exchange reaction using a T-tube front end to the MS[62]; data were not corrected for back-exchange. Segmental exchange was performed as described. Briefly, fibrils were recovered from the exchange reaction by centrifugation (20,800g, 30 min), and in a 4 °C room to 20 μl ice-cold 8 M Gdn.HCl plus 0.1% formic acid was added to the pellets and mixed for 10 s, then 100 μl pepsin agarose (Sigma-Aldrich) in 0.1% cold formic acid was added and mixed for 10 s. The sample was immediately centrifuged to remove the immobilized pepsin (20,800g, 30 s) and the supernatant subjected to 4 °C LC-MS analysis.

[3] = Spontaneous aggregation kinetics by sedimentation-HPLC assay (disappearance of monomer); format: physicochemical; conditions: 22 μM start, after 35 days, PBS, 37 °C
Procedure: Disaggregated peptide stock solutions were first checked for approximate concentration. All concentrations, for setting up the reaction and for assaying kinetics time points, were determined from integrated A214 HPLC (Agilent XDB-C18 4.6 × 50 mm column) peaks using standard curves individually constructed for each peptide from standard stock solutions calibrated via the A215 absorption[23][41]. […] Sodium azide was added to 0.05% (w/v) and pH adjusted to 7.4. After filtration through a 0.2 μm filter unit (Anotop 10) to get rid of aggregates, the solution was held at 4 °C while the t=0 concentration was determined (∼30 min). The reaction mixture was moved to 37 °C and kinetics monitored by the sedimentation and ThT assays on reaction aliquots and by CD.
Duplicate time points were removed periodically, centrifuged 30 min at 436,000g followed by HPLC analysis of monomer concentration from the carefully removed supernatant[41].
For sedimentation and ThT kinetics, as well as kinetics underlying the n* and Cr determinations and inhibition kinetics studies, each plotted data point is derived from analysis of 2–3 independent reaction aliquots. Each aggregation study was independently carried out twice, with similar results obtained.

T1 sequence (P05067 672-713): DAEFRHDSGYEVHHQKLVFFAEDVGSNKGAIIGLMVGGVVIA

Aβ40: full-length Aβ peptide ending at residue 40
Cr of fibrils [1]: 1.06 ± 0.18 µM
Exchange of the C-terminal 35–42/35–40 fragment after exposure of fibrils to D2O [2]: essentially fully exchanged

Aβ42: full-length Aβ peptide ending at residue 42
Cr of fibrils [1]: 0.11 ± 0.01 µM and 0.11 µM
Exchange of the C-terminal 35–42/35–40 fragment after exposure of fibrils to D2O [2]: resists exchange
Global HX incorporation (Aβ42 aggregates; Aβ42 aggregated alone): 14.8±1.2 deuteriums
Global HX incorporation (Aβ42 aggregates; Aβ42 aggregates grown in the presence of K10G2Aβ31–42): 25.6±1.2 deuteriums
Newly unprotected amide hydrogens (Aβ42 aggregates; Aβ42 aggregates grown with K10G2Aβ31–42 vs Aβ42 alone): ~11

H-KKQQQQQQQQQQQQQQQQQQQQQQQKKAIIGLMVGGVVIA-OH
fraction of reaction mixture sedimentable at early time: 15%

KKKKKKKKKKGGIIGLMVGGVVIA [K10G2Aβ31–42]
Monomer remaining in the reaction mixture [3]: ~13 µM
